From PMC2645002

Molecular target: miniCD4 CD4M48, biotinylated at Lys11
Experiment: pull-down

HIV-1 envelope glycoprotein gp120SF162 (monomer) (natural protein)
% of recovery: 55.8%
